Tested on: GAL4 DNA binding sites (UAS-Luc, pFR-Luc reporter)
Assay: GAL4 DNA binding domain fusion transactivation assay (pFR-Luc) in HEK 293 cells
Format: cell-based
Settings: normalized to pCMV-BD vector
From the text: To determine if CREAP proteins can act as a transcription activators, various regions of all 3 CREAP homologs (amino acids 300-650 of CREAP1, amino acids 296-694 of CREAP2 and amino acids 335-635 of CREAP3) were expressed as fusion proteins with the DNA binding domain of GAL4 and tested for the ability to activate expression of a reporter gene linked to GAL4 protein binding sequences (UAS-Luc (pFR-Luc reporter). Briefly, the indicated regions of CREAP1, CREAP2 and CREAP3 were amplified by PCR and subcloned in frame into pCMV-BD vector (Stratagene) encoding GAL4 DNA binding domain. Selected plasmids and empty vector (pCMV-SPORT6) were transfected into HEK 293 cells at 75 ng/well using Fugene6 transfection reagent (Roche) as described above. pFR-Luc reporter (Stratagene) encoding firefly luciferase gene driven by minimal promoter linked to 5 concatamerized GAL4 binding sites (UAS) was co-transfected at 100 ng/well. As a positive control, the reporter was also co-transfected with a plasmid encoding GAL4-CREB fusion protein (Stratagene) alone or in the presence of pFC-PKA an expression construct encoding catalytic subunit of protein kinase A (Stratagene) to activate the CREB kinase inducible activation domain. Fold induction was compared to the reporter's activity measured in the cells transfected with pCMV-BD an expression vector carrying GAL4 DNA binding domain only.
Expression constructs encoding full length CREAP1, CREAP2 and CREAP3 as well as a Gal4 DNA binding domain alone or fused with C-terminal portions of CREAP1, CREAP2 and CREAP3 were tested for the ability to induce expression of a luciferase gene controled by a minimal promoter linked to GAL4 DNA binding sites (pFRLuciferase). The data shown are normalized to the value seen with pCMV-BD vector co-transfected with pFR-Luc reporter.

B1: CREAP1: human CRE activating protein 1, 650 amino acids, SEQ ID NO 2; expressed from pCMVSPORT-CREAP1 (protein)
chain: MATSNNPRKFSEKIALHNQKQAEETAAFEEVMKDLSLTRAARLQLQKSQYLQLGPSRGQYYGGSLPNVNQIGSGTMDLPFQPSGFLGEALAAAPVSLTPFQSSGLDTSRTTRHHGLVDRVYRERGRLGSPHRRPLSVDKHGRQADSCPYGTMYLSPPADTSWRRTNSDSALHQSTMTPTQPESFSSGSQDVHQKRVLLLTVPGMEETTSEADKNLSKQAWDTKKTGSRPKSCEVPGINIFPSADQENTTALIPATHNTGGSLPDLTNIHFPSPLPTPLDPEEPTFPALSSSSSTGNLAANLTHLGIGGAGQGMSTPGSSPQHRPAGVSPLSLSTEARRQQASPTLSPLSPITQAVAMDALSLEQQLPYAFFTQAGSQQPPPQPQPPPPPPPASQQPPPPPPPQAPVRLPPGGPLLPSASLTRGPQPPPLAVTVPSSLPQSPPENPGQPSMGIDIASAPALQQYRTSAGSPANQSPTSPVSNQGFSPGSSPQHTSTLGSVFGDAYYEQQMAARQANALSHQLEQFNMMENAISSSSLYSPGSTLNYSQAAMMGLTGSHGSLPDSQQLGYASHSGIPNIILTVTGESPPSLSKELTSSLAGVGDVSFDSDSQFPLDELKIDPLTLDGLHMLNDPDMVLADPATEDTFRMDRL
modifications: human
**Q.** How did the “Fold Induction” value turn out when B1 was run?
**A.** Its value is 2.468.
